The subject of the data set is T1, KH9-OEP34 (CTP) (synthetic).
T1 sequence: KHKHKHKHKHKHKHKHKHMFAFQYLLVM
The data set is described as follows: free peptide quantification. Conditions: in water; N/P 0.5-5.0; value stated as up to 64%; pDNA/CTP complexes formed in water, N/P 0.1-25, agarose gel EMSA; pH, salt and temperature not given in the material. On the technique in general: A gel shift assay detects complexes by their altered migration in electrophoresis.

pPpsbA::Rluc: the binding signal (% of CTP bound (maximum)) is 64.

Source of the values: publication PMC6891901.
